Assay results: patent publication US8562982B2, “Use of platelet activating factor acetylhydrolase as a biomarker for anaphylaxis” (Allertech Laboratory Inc., priority 2007, dated 2013)

Assay: Stability of PAF-AH in serum (storage temperatures, freeze-thaw cycles)
Assay type: physicochemical, human
Experimental: Sera may have been stored under differing conditions, subjecting PAF-AH to thermal stresses. In order to evaluate the effect of handling and storage conditions on PAF-AH activity, serum samples were subjected to a range of temperatures and freeze-thaw cycles and assayed for residual PAF-AH activity as detailed below.
The final concentration of the substrate was 160 μM. […] The reaction was stopped in an ice bath.
Serum samples from individuals with fatal peanut anaphylaxis and from various control groups may have been stored under differing conditions, subjecting PAF-AH to thermal stresses. In order to evaluate the effect of handling and storage conditions on PAF-AH activity, sera were stored at different temperatures. The stability of PAF-AH stored at 4° C. and 23° C. and subjected to repeated cycles of freeze-thawing was assessed. PAF-AH levels were measured at specified times following storage at 23° C. (2, 4, 8, 24 and 48 hours) and at 4° C. (5 and 10 days) and following 5 sequential cycles of freezing and thawing. To assess the stability of PAF-AH to long term storage, serum samples stored at −70° C. since 1998 were re-assayed for PAF-AH and compared to results of assay results prior to storage.

B1: PAF-AH: the enzyme that degrades PAF; endogenous serum enzyme measured as biomarker (protein, UniProt Q13093 22-441, looked up)
Platelet-activating factor …: FDWQYINPVAHMKSSAWVNKIQVLMAAASFGQTKIPRGNGPYSVGCTDLMFDHTNKGTFLRLYYPSQDNDRLDTLWIPNKEYFWGLSKFLGTHWLMGNILRLLFGSMTTPANWNSPLRPGEKYPLVVFSHGLGAFRTLYSAIGIDLASHGFIVAAVEHRDRSASATYYFKDQSAAEIGDKSWLYLRTLKQEEETHIRNEQVRQRAKECSQALSLILDIDHGKPVKNALDLKFDMEQLKDSIDREKIAVIGHSFGGATVIQTLSEDQRFRCGIALDAWMFPLGDEVYSRIPQPLFFINSEYFQYPANIIKMKKCYSPDKERKMITIRGSVHQNFADFTFATGKIIGHMLKLKGDIDSNVAIDLSNKASLAFLQKHLGLHKDFDQWDCLIEGDDENLIPGTNINTTNQHIMLQNSSGIEKYN
6 fresh sera, 5 freeze-thaw cycles, relative to fresh sera
  residual PAF-AH activity: 90-105%
Fresh sera in 1998 (n=25), before storage
  mean PAF-AH activity: 27.04 ± 9.92 nmol/mL/min
Same sera after eight years at −70° C. (p=0.1047)
  mean PAF-AH activity: 22.98 ± 7.23 nmol/mL/min
Sera stored at 4° C. for 10 days
  retained initial PAF-AH activity: 96-102%
Sera stored at 23° C. for up to 48 hours
  retained PAF-AH activity of fresh sera: 84-92%
